Experimental data reported in patent publication US20110201552A1 (Janssen / Centocor, published 2011).

T1: soluble GFRα-2 IgG1-Fc fusion protein (GFRα-2 amino acids 20 to 431 fused to human IgG1-Fc, from CHO cells) (human, UniProt O00451 20-431)
T1 construct: range 20-431; The 17 amino acid CD33 signal peptide of the vector is left out; also called GFRα2-Fc; not shown: 243 amino acid COOH-terminal human IgG1-Fc fusion domain of vector Signal pIg plus (R&D Systems); Its exact limits and a
T1 sequence (looked up): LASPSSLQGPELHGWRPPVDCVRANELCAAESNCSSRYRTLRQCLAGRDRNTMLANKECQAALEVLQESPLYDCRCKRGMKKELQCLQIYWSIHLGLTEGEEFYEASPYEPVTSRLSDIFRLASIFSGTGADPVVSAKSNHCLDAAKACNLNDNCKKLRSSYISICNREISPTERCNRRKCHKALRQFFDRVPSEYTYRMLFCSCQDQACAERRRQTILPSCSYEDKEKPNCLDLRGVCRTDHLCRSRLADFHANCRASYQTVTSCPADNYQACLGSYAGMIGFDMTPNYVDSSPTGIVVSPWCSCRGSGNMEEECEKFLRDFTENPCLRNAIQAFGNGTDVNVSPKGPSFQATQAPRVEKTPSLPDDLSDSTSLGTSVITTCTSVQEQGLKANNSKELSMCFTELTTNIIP

T2: soluble GFRα-1 IgG1-Fc fusion protein (GFRα-1 amino acids 27 to 427 fused to human IgG1-Fc, from CHO cells) (human, UniProt P56159 27-427)
T2 construct: range 27-427; The 17 amino acid CD33 signal peptide of the vector is left out; also called GFRα1-Fc; not shown: 243 amino acid COOH-terminal human IgG1-Fc fusion domain of vector Signal pIg plus (R&D Systems); Its exact limits and a
T2 sequence (looked up): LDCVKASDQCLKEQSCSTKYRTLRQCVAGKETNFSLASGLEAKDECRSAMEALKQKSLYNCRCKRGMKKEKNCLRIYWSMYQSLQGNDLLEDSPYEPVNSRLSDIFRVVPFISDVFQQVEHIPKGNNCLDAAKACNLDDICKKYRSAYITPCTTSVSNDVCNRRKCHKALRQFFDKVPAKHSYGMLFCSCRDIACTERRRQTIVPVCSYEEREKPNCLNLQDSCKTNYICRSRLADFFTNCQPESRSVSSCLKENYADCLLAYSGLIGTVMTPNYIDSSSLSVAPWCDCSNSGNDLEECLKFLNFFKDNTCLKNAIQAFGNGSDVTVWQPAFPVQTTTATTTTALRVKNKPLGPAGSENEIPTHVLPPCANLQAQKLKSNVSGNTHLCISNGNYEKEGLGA

B1: recombinant enovin (6xHis-tagged mature human Enovin expressed from plasmid hEVNmat/pRSETB in E. coli BL21(DE3), refolded) (ligand)
chain: MRGSHHHHHHGMASMTGGQQMGRDLYDDDDKDPAGGPGSRARAAGARGCRLRSQLVPVRALGLGHRSDELVRFRFCSGSCRRARSPHDLSLASLLGAGALRPPPGSRPVSQPCCRPTRYEAVSFMDVNSTWRTVDRLSATACGCLG
notes: The construct codes for a 146 amino acid protein: 33 leader and tag residues plus 113 residues of mature enovin; also called immobilized enovin
B2: soluble GFRα-3 IgG1-Fc fusion protein (GFRα-3 amino acids 28 to 371 fused to human IgG1-Fc, from CHO cells) (Fc fusion, UniProt O60609 28-371, looked up, not shown: a dimerising Fc or GST)
chain: LAAGDPLPTESRLMNSCLQARRKCQADPTCSAAYHHLDSCTSSISTPLPSEEPSVPADCLEAAQQLRNSSLIGCMCHRRMKNQVACLDIYWTVHRARSLGNYELDVSPYEDTVTSKPWKMNLSKLNMLKPDSDLCLKFAMLCTLNDKCDRLRKAYGEACSGPHCQRHVCLRQLLTFFEKAAEPHAQGLLLCPCAPNDRGCGERRRNTIAPNCALPPVAPNCLELRRLCFSDPLCRSRLVDFQTHCHPMDILGTCATEQSRCLRAYLGLIGTAMTPNFVSNVNTSVALSCTCRGSGNLQEECEMLEGFFSHNPCLTEAIAAKMRFHSQLFSQDWPHPTFAVMAHQ

How the values were obtained:
[1] = target: T1, soluble GFRα-2 IgG1-Fc fusion protein …; test: SPR (BIAcore 3000), enovin immobilized, soluble GFRα-Fc in flow
Method: (§1) Surface plasmon resonance (SPR) experiments were performed at 25° C. using a BIAcore 3000 instrument. Analyses were performed with enovin and NGF as immobilized ligands. The carboxylated matrix of a Fl sensor chip was first activated with a 1:1 mixture of 400 mM N-ethyl-N-(dimethylaminopropyl)-carbodiimide and 100 mM N-hydroxy-succinimide for 10 min. Than, recombinant enovin and NGF were applied onto the activated surface in […] acetate buffer, pH 4.5 at a flow rate of 5 μl/min. Unoccupied reactive groups were inactivated with 1 M ethanolamine hydrochloride. For binding experiments, soluble GFRα1-3-Fc were superfused at concentrations of 10-100 nM in HEPES buffered saline (150 mM NaCl, 3.5 mM EDTA, 0.05% P-20, 10 mM HEPES, pH 7.4) at a flow rate of 10 μl/min. The association was monitored for 3 min and dissociation for 1 min, followed by regeneration with 5 mM NaOH. Dissociation was initiated by superfusion with HEPES buffered saline. A BIAcore evaluation software, 3.0 was used to calculate the association rate (kₐ), dissociation rate (kd) and the equilibrium dissociation constants (KD calculated as kd/Kₐ).

[2] = target: T2, soluble GFRα-1 IgG1-Fc fusion protein …; test: as above
Method: as §1

[3] = target: recombinant enovin (6xHis-tagged mature human Enovin expressed from plasmid hEVNmat/pRSETB in E. coli BL21(DE3), refolded) (human); test: SPR (BIAcore 3000, 25 C), enovin immobilized, soluble GFRα3-Fc in flow; KD calculated as kd/ka
[4] = target: recombinant enovin (6xHis-tagged mature human Enovin expressed from plasmid hEVNmat/pRSETB in E. coli BL21(DE3), refolded) (human); test: SPR (BIAcore 3000, 25 C), enovin immobilized, soluble GFRα3-Fc in flow at three concentrations

Binder | binding result [1] | binding result [2] | Kd [3] | koff [4] | kon [4]
B1 | no binding (tested: 10-100 nM) | no binding (tested: 10-100 nM) | – | – | –
B2 | – | – | 3.1 nM | 0.000508 s⁻¹ | 165000 M⁻¹ s⁻¹
